Measured values as given in the NTF2 design screens of Basanta et al. (2020).

Test: protease stability score; higher = more stable; yeast display proteolysis, trypsin and chymotrypsin;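 also: relative to predicted unfolded state with 0 unfolded-like and 1 meaning tenfold more protease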

Sequence | protease stability score
SEEENISKHLADLMFRAIFTGDWQELSRLLDPNARLRVDGVIHHGRETSVEFLERMFRTLGIDHYRVRHVNVQGEKVDIHSEVEYDGRKIDTKIHLVVVNGKVKSVDVRVD | 1.97
SEEEQDIKHFLELIERTHHTGDEKLFRDLFDPNVRLHVGDKNMHGREKALERWRLLGYEIKHLRWRDFRIFDGRVTAHGEMEGQVNGQKIKRDVEIVLVKIDGQWFIEEERVR | 1.57
SEEEQEAIENLHQYIEAIKTGDEDKLRDLFDPNAIIHFDGREIHGRHVFLKKLRHLWLDLKHFHIQHVEPYNGRVEIHGFQHTSVDIDGVRSRRDEHVLIEIIKINGKWKIKRIEWI | 1.68
SEEEQEFRLILKEHLDKLETGDEDDLHRLMDPNVRIEIGDKEMHGREHATRFFRELRVEHVHLESYELQGEKVNLHGRMIGDINGKKVDRTVHIFLLKVNGRWIIHSWEVV | 2.14
SEEEQELYRTAKLMLESMTTGNEELNKRLADPNVRIHWNGVENHGWRIFRENLEELRIHLKDWRFRRFDLYNGVALLDIEVQIDIEIGDKRIEYETQTILLLFVVNGRIKSISMRIL | 1.07
SEEEQFFRLALELFRQVLQTGDEDRLRELVDPNAKHIINGVELHGRSVLEEFLKRYKNLRIHDVEIKDIRVFDGKLELHGIEDGIIGDKRDERRWHLISEKVDGRWIMHEIQID | 1.7
SEEEQHAKHMSHLISHVLKTGDEERWKELMDPHTRLIVGDKEFHGREALHELKRRVDHMKDVLIHSVEVQGNKADFDVEVHVKVDGRHERLKMRWIVDKVNGRWVQSEIIIH | 1.65
SEEEQHFRELLHHILENMYTGDWRSLEKNADPHARLFYYQGDKYELYIGMHEWRRLLHHMHERFRNARFQIDEWHVQGDYFKIVESLDYGDKHIDIRVHIQYVNGRLKEMHIHIH | 1.24
SEEEQHLEKMAEDLLHFILTGDEEAMRKMADPTVRLHLHIGDKEERYHGRRDVVRWFHEWVKKVKGMTIEIKRVKVFDGRIFVDGILEINGVKVRVHLITDVIDGKLTRTEERIE | 1.49
SEEEQKLRNMAKLTFKDLITGDEEHFEKLADPHTRFNVGNYERHGMRLHLEWYLEWLTRIKGLKLRLELHDVRVVDGRAISDTTLDVHIGDKHIHQDIKLLLVIVDGRIKELEIRFV | 1.22
SEEEQLALEIARRLVRSILTGDEHEIHRLMDPHVRTNWNGQELVGREEWDRFNHEMRIHELRIREFDVEVFNGRVESRFRTETRMTFDGREVNEETKLIVILDKVDGKWHLRHVEFRIH | 0.651
SEEEQLIRLALEWELHSEETGDEELVRENADPHVRLEINGVEVIGMELAVKILFELKEDMGIKHIELKSVDTQGDKLNIHSKYHVNGRHIDVIIISKKVNGRWRMKRIIVTIR | 2.46
SEEEQLVQSAIEITVEALQTGDEHKIREMLDPHVKVRINGQDTHGWEVMEVFMKELGIKHIRVHIEHVNVQGEKVEVKGRVIINFNGRHYEREHWIIIFKIDGRWVNDSIEYI | 2.12
SEEEQRKEDFLRWFHKALLTGDEEVLLKMADPNVRADINGVDIHGWKEFRQTTHDLRREIRIRDFEVKDEKLVGDKLHVDSSVDGEFDGRRHELKTHLIFLKVDGKWFFKEIRIK | 1.34
SEEEQRQHEFMILWLEYFRTGNEEELLELIDPNVLLVMDINGRNELNHGRELWHEFMNRFWEKIKNATFIVHDKRVINGRIHMDGRLDINGREYTVHLHIEVINGVTKRFEIRIR | 1.68
SEEEQSARKVIEDLIRDLVTGDEKSLRRLMDPHVRFDIGDKELIGREEVLEFWRHIRIHDIKLEDVRLIDGRATVEGKLNGEINGVHHRLDEHIFIYKVDGRWVVHEIRII | 1.53
SEEERATEYVLSMLLHLLRTGDEDALFEMADPRYRFIYGEKEKVGRHVIHEFITHLRIDDFRLRRLEIQGDKIITDGEMYGTINGQHETRRVILIMRKINGRWFLESIEIR | 1.7
SEEERDAEENIRLYEELWRTGDFDIFKHLADPNVRLHINGRDVHGRENVSRLISEWRDEDIILRHFTVIDGRIEVHSEFHGQVDGQRRNTRIHIHLRKINGQWRLTEVKYE | 1.12
SEEERDAHEAWRLILETNLTGDEDFSANLMDPDVRITINGRHLHGRELVLRFLNEWRIEFHRVEIKDYEVQGDYVIIIGHMDGILKVDGKEIRFTSDVSIISVKVNGRWLIREIHIK | 2.7
SEEERDAKEAVHLLLDMIDTGDFERITKYMDPNTRSRVGDKNDHGRHWLRHRRRHAGHDNIHVHLTRVDIFDGVVQINGRLDVDGKEIEVHWFIRKINGRWIVEEVHIQ | 0.367
SEEERDARIAIEIMLRLLHTGDEESMHQLADPDVRSDVGDKELHGWKLFVDVITEMGIDHVELEHLHTQGDKVHIHVRSFFNGREYLVNLHVRKVDGKWYVEEMKISHH | 2.45
SEEERDIRHSIEMLFYYFETGDWREWERLADPRARLIIGEKEHHGREELSRSLKELLDRLGVDHYEIKDKRSEIIDGRVNLHVRGHLHVNGRNQHVIVIMVAIKIDGRWLLESLEIRLH | 1.3
SEEERDLKEEADRFLDHVRTGDEDTLRDLIDPNVKLRVDQGDKDIELHGREEVIKFLVHMRIHHVKLNNFRIQGNKIIHDIRVDGTINGVRRDRREHLILHIVDGKIKIVEIRVE | 1.28
SEEERDLREALEEHKRTLQTGDEELWNKLFDPHARSDINGVEFHGMEDISRHIYKFFIDFGFKHVRFKHVELYGDKLVMRGSLNINGVDLDIEIISRKIDGRWLIHHWIIR | 0.859
SEEERDMKEWLRLHVEALRTGDEHHLRHLMDPHTRIQVGDKEIHGMDEIARHVREIRQHVEIRVHHVEIIGDKIIMDVELRLIVHFDGKTFDIKTRFLLHIWKVNGRWILKSVHIE | 1.21

Sequence | protease stability score
SEEERDTIEFARLWLENYLTGDEETMKELADPRTLSTFRFENHHLHLHGMHLHFTWLHQIRIRHFQPREVSVVNGKTTIDGEYHGEVGDKSHTTRVIIRLEIVNGKIKSVEIEVK | 1.07
SEEERDVKEVLKLIFEHFLTGDWDWLSEMMDPHARSDINGVERHGRDDLKEMYEAIIRKLGADHIRVDTVRVDLFDGRLIVEIHTRNHVGDKEFRVINIFIMRKINGRWHVESVLLHIE | 1.56
SEEERDVRHVFEVFERSMNTGDEKKIEDRLDPNVRIIIGDKRVHGMHWVSKVIVEMRTHFILRRIRIIGDKADIDGELELRAEGHHIHTHVIIVVHKINGRWYIEEIEIR | 1.69
SEEEREAQTFYEEWRENFRTGDFDRLHELMDPNARIHQGDKLIIGRQLLEHWRHRFKNIRVDFDLKHIEVQGEKIILRLHFEISIDGRTEHYDMIMIVHKVDGVWIVKSFTIK | 1.43
SEEEREDEEMFRKLWEAYKTGDEKTLSELVDPNARLRFENREFVGRESIKEFYRRIREKFKGIRIEDVHLRDRKEQGEFIHIDIEINRFVGDKYENVKVEIVLLKFDGRWIIHEIRIK | 2.69
SEEEREIREIMKRFVQSFYTGDEHSLKKLLDPNVRHEFNGKEEHGWHRVWEDLAFFLRHIRIKHVVLRDVRVQGDKVHAHVEIHEEWDGRERDVEVHMRLEIVDGVVKSVKIEIQ | 1.43
SEEERESEEFWKHLRDVTRTGDFDSLSKLVDPEVRLEWNGRHFIGREHLAELVIDMLNRIDHVELRLHSYRLQGNYLHLRTILIIRINGQQITHDTRITFIKVDGRWIIESKHVH | 0.869
SEEERESKEATKLHLDALRTGNEELLRHLFDPDVKVDVNGKHLHGWKLLTEVLQRMGVKHVELTDFRVYDGRIDLREKWDVDGKEIEVFIHARKFNGQWHTESIHIK | 1.15
SEEERETKLMDEIYQRLFKTGDEHKFLRLADPHAKFHFDGREDHGMHNSTRIWKKLNDILGLDNIRFHVRDWTVFDGVAHVDGKLVINGKEIEVKLHVVVVNGRVKSVSIEHE | 0.924
SEEERETRKIFEDLLKTMETGDWRHLHRLIDPNARLIVNGQEFHGREDLIRLLEQLRIRSMRITDVRNQGNKSHVDGTVEGEWNGRTDNNRTEVHLVVVDGVLKHVEFHLH | 1.47
SEEERFVEEMLRHFLTNFLTGDWDKVAKLADPDTRSLIGDKHSHGRERVIDVLTYVVEEWRWKEFRVHRTTSIGEKAHSDTETDGNYNGVDVRSRSYIHFEVVNGRMSQIHLIFV | 0.694
SEEERHIKEFTRRLLHVFITGDEHELKELFDPNTRSIFNGVDVHGWKEITRFIREIREKEVRIRDVKVFNGRVHLEGHSNMEWNGQERRSDVEMHFDVINGQVHEIEIRIR | 1.17
SEEERHSREMMKLYYKFLETGDEEKFLSLADPDVRIVFNGRDYHGWKDMEKLFHRLLKELGVDHFHIEHVRIDIIDGVAFAFFEVSYNIDGKSLHMHYRFYVKKIDGKWHVRWIHLEVK | 1.59
SEEERHWKEFIRMMFEALKTGDETELEKNIDPNVRVHINGQELHGRETASRFMQKHEEDMGFKHFHIDHIHFQGDKIHVHGILWVNGRDIEIHIHLVIVNGRVSLVSRDIREH | 0.247
SEEERILEEILRRLLRLLATGDWEDLHKLFDPTVRIVFNGQLLHGWHEFIRTMHQLWVDRIRVERVRFQGDFQHYETRNDITINGVRIETESRVHVKIVDGRIKYFEFELT | 2.53
SEEERIMEEVSNLILDILYTGDWRRFLKLADPRTRSEINGVELIGMENHFKMWEHWRIKHIDMHSHESQGDKAIAHTRHRGEINGRERDVDTNLFVLVVNGRLKQIRLEFV | 1.25
SEEERLAEHYYRETIELITTGDWRKLLELFDPDARLVIGDKTYHGMDTIIKIWEELRMHIRDVHFHHVSVIDGRIHLDVVVDVTKNIDGVRIRTTHRVHIIMEKIDGKWFVREIRIK | 2.38
SEEERLAREISKELVEILLTGDEDRLLELADPDVRHILLFNGRDDDQHGRENMSRAEKLFREWLGVKHVDVTHVEVQGDKIHNDTVVDINGVRFEFRIIWVVVNGRVKVWRVEMR | 1.52
SEEERLARVFVELLLEISKTGDERMWKWLADPHYRLIIDGVRFHGRETLEREFKRFDYIHDVRLNDMIINGEHLILDVRVHGQQGDKEINIRTFLVVLKVDGVWVLKSVHIH | 1.49
SEEERLIIEVMKDFEHSHRTGDWRRILKNLDPNTRHEFNGVEFHGMEEVVRFWIELKDEIRIHHIEIESINHVGDKAHMNVRRDTEVNGKREDVRVQVDLRVINGRIKSVIIRIE | 0.844
SEEERLLHEFWERLQHSHKTGNEEEYRKNIDPHARLDIDGREMHGWENFFHFFVEMRVHDLRIEDYRVQGDKVIVHTRVDGIVNGVRTEIHSELIIRKIDGRWFIEAMTIK | 1.07
SEEERLMEEAMKEFVNNSLTGDFHKMSNLADPNTRIEIDGRELHGRELAEELWERIKNLTVEIKDYKVQGDKVIIYVKIHVNGREKDVILYVQKINGRWLLRHVEVR | 1.34
SEEERLTEEFLTKFEEILETGDEELLWRLIDPHARTLFDGQEFHGREDFVMIFDELVRHAGFDVRHIHSIHVQGDKIEVRSTMVVNGRNFEIRLHLRKINGRWHIEEIEIR | 2.7
SEEERLTRELVEILLELFKTGDEDKWKEMVDPNVRVELIQGEKFIIDHGWESFFRFLLELGVDHREDKRKDAVNGRVHLTGQIDINGRRIDIHLDIDVVNGKVKSIRVELR | 0.933
SEEERLYEHAWKLYIHDFITGDEKSHSRLADPHTQMIIGDKLLIGREEFVKWMKHLLDQVKNITVEHVKIRHEHYQGDKAHIDVEEEIHFNGQRHKRRVILTILKVNGRWSIESVEYT | 0.898
